According to patent publication US20170037111A1, “Novel peptides and combination of peptides for use in immunotherapy against ovarian cancer and other cancers” (immatics biotechnologies GmbH, priority 2015, published 2017):

Target: HLA-A*02:01 (Homo sapiens, UniProt P04439, D140Y/D185E/D98H/E176V/E277Q/G131W/G231S/I119V/I121R/I166T/I218V/L300P/L318F/N151K/N90K/P208A/P217A/Q86G/Q94H/R138H/R169H/T345S)
Experiment: MHC binding assay (UV-ligand exchange, β2m ELISA, peptide exchange yield)
Details: MHC class I binding score; binding to HLA-A*02:01 ranged by peptide exchange yield (UV-ligand exchange, β2m ELISA)
Source text: Candidate peptides for T cell based therapies according to the present invention were further tested for their MHC binding capacity (affinity). The individual peptide-MHC complexes were produced by UV-ligand exchange, where a UV-sensitive peptide is cleaved upon UV-irradiation, and exchanged with the peptide of interest as analyzed. Only peptide candidates that can effectively bind and stabilize the peptide-receptive MHC molecules prevent dissociation of the MHC complexes. To determine the yield of the exchange reaction, an ELISA was performed based on the detection of the light chain (β2m) of stabilized MHC complexes. The assay was performed as generally described in Rodenko et al. (Rodenko et al., 2006).
96 well MAXISorp plates (NUNC) were coated over night with 2 ug/ml streptavidin in PBS at room temperature, washed 4× and blocked for 1h at 37° C. in 2% BSA containing blocking buffer. […] Peptide-MHC monomers of the UV-exchange reaction were diluted 100 fold in blocking buffer. Samples were incubated for 1h at 37° C., washed four times, incubated with 2 ug/ml HRP conjugated anti-β2m for 1h at 37° C., washed again and detected with TMB solution that is stopped with […]. Absorption was measured at 450 nm. Candidate peptides that show a high exchange yield (preferably higher than 50%, most preferred higher than 75%) are generally preferred for a generation and production of antibodies or fragments thereof, and/or T cell receptors or fragments thereof, as they show sufficient avidity to the MHC molecules and prevent dissociation of the MHC complexes.

Substance | Peptide exchange
107 (FLQPVDDTQHL; listed as Homo sapiens) [compound 107] | ″+++″ (≧50% = +++)
206 (VLQEGKLQKLAQL; listed as Homo sapiens) [compound 206] | ″+++″ (≧50% = +++)
30 (LILDWVPYI; listed as Homo sapiens) [compound 30] | ″+++″ (≧50% = +++)
313 (VLFDDELLMV; listed as Homo sapiens) [compound 313] | ″+++″ (≧50% = +++)
16 (VLFQGQASL; listed as Homo sapiens) [compound 16] | ″+++″ (≧50% = +++)
175 (YLFENISQL; listed as Homo sapiens) [compound 175] | ″+++″ (≧50% = +++)
543 (GLLPTPITQQASL; listed as Homo sapiens) [compound 543] | ″+++″ (≧50% = +++)
33 (VLLSLLEKV; listed as Homo sapiens) [compound 33] | ″++″ (≧20% = ++)
568 (TLYDIAHTPGV; listed as Homo sapiens) [compound 568] | ″++++″ (≧75% = ++++)
332 (YLISELEAA; listed as Homo sapiens) [compound 332] | ″+++″ (≧50% = +++)
241 (SLVEVNPAYSV; listed as Homo sapiens) [compound 241] | ″+++″ (≧50% = +++)
358 (ALDEYTSEL; listed as Homo sapiens) [compound 358] | ″++++″ (≧75% = ++++)
186 (TLFFQQNAL; listed as Homo sapiens) [compound 186] | ″++″ (≧20% = ++)
195 (GLFADLLPRL; listed as Homo sapiens) [compound 195] | ″+++″ (≧50% = +++)
522 (TLWYRSPEV; listed as Homo sapiens) [compound 522] | ″++″ (≧20% = ++)
47 (ILLSVPLLVV; listed as Homo sapiens) [compound 47] | ″++″ (≧20% = ++)
101 (ILVGGGALATV; listed as Homo sapiens) [compound 101] | ″+++″ (≧50% = +++)
28 (QLLDETSAITL; listed as Homo sapiens) [compound 28] | ″+++″ (≧50% = +++)
479 (SLFGNSGILENV; listed as Homo sapiens) [compound 479] | ″+++″ (≧50% = +++)
600 (ALAAPDIVPAL; listed as Homo sapiens) [compound 600] | ″+++″ (≧50% = +++)
302 (ALLQEGEVYSA; listed as Homo sapiens) [compound 302] | ″+++″ (≧50% = +++)
607 (RLYSGISGLEL; listed as Homo sapiens) [compound 607] | ″+++″ (≧50% = +++)
18 (YLVAKLVEV; listed as Homo sapiens) [compound 18] | ″++″ (≧20% = ++)
168 (KILDADIQL; listed as Homo sapiens) [compound 168] | ″++++″ (≧75% = ++++)

Substance | Peptide exchange
512 (SLSEIVPCL; listed as Homo sapiens) [compound 512] | ″+++″ (≧50% = +++)
288 (NLINEINGV; listed as Homo sapiens) [compound 288] | ″+++″ (≧50% = +++)
401 (ILLDDTGLAYI; listed as Homo sapiens) [compound 401] | ″+++″ (≧50% = +++)
558 (GLLENIPRV; listed as Homo sapiens) [compound 558] | ″+++″ (≧50% = +++)
380 (TLIEDEIATI; listed as Homo sapiens) [compound 380] | ″++″ (≧20% = ++)
210 (LLLNAVLTV; listed as Homo sapiens) [compound 210] | ″++″ (≧20% = ++)
311 (RLYTGMHTV; listed as Homo sapiens) [compound 311] | ″+++″ (≧50% = +++)
437 (SMAPGLVIQAV; listed as Homo sapiens) [compound 437] | ″+++″ (≧50% = +++)
439 (YLLQEIYGI; listed as Homo sapiens) [compound 439] | ″+++″ (≧50% = +++)
562 (YLEELPEKLKL; listed as Homo sapiens) [compound 562] | ″+++″ (≧50% = +++)
517 (LLMPIPEGLTL; listed as Homo sapiens) [compound 517] | ″+++″ (≧50% = +++)
537 (TLAPGEVLRSV; listed as Homo sapiens) [compound 537] | ″+++″ (≧50% = +++)
125 (VQIHQVAQV; listed as Homo sapiens) [compound 125] | ″+++″ (≧50% = +++)
478 (YLLHEKLNL; listed as Homo sapiens) [compound 478] | ″+++″ (≧50% = +++)
114 (SLVGEPILQNV; listed as Homo sapiens) [compound 114] | ″++″ (≧20% = ++)
326 (FLPEALDFV; listed as Homo sapiens) [compound 326] | ″+++″ (≧50% = +++)
188 (GLFPVTPEAV; listed as Homo sapiens) [compound 188] | ″+++″ (≧50% = +++)
27 (ILADIVISA; listed as Homo sapiens) [compound 27] | ″+++″ (≧50% = +++)
120 (ALLGIPLTLV; listed as Homo sapiens) [compound 120] | ″+++″ (≧50% = +++)
526 (RLAEVGQYEQV; listed as Homo sapiens) [compound 526] | ″++″ (≧20% = ++)
127 (KIGDEPPKV; listed as Homo sapiens) [compound 127] | ″++″ (≧20% = ++)
211 (LLWPGAALL; listed as Homo sapiens) [compound 211] | ″++″ (≧20% = ++)
371 (FLQAHLHTA; listed as Homo sapiens) [compound 371] | ″++++″ (≧75% = ++++)
261 (YVLEFLEEI; listed as Homo sapiens) [compound 261] | ″++″ (≧20% = ++)

Substance | Peptide exchange
100 (YLLSTNAQL; listed as Homo sapiens) [compound 100] | ″++++″ (≧75% = ++++)
85 (KMSELRVTL; listed as Homo sapiens) [compound 85] | ″+++″ (≧50% = +++)
131 (FVPPVTVFPSL; listed as Homo sapiens) [compound 131] | ″++″ (≧20% = ++)
98 (LIIDQADIYL; listed as Homo sapiens) [compound 98] | ″+++″ (≧50% = +++)
320 (KMFEFVEPLL; listed as Homo sapiens) [compound 320] | ″++++″ (≧75% = ++++)
196 (YLYSVEIKL; listed as Homo sapiens) [compound 196] | ″++++″ (≧75% = ++++)
282 (LLADVVPTT; listed as Homo sapiens) [compound 282] | ″+++″ (≧50% = +++)
408 (VLDDSIYLV; listed as Homo sapiens) [compound 408] | ″++″ (≧20% = ++)
621 (VLMDRLPSLL; listed as Homo sapiens) [compound 621] | ″++++″ (≧75% = ++++)
610 (LLAPTPYIIGV; listed as Homo sapiens) [compound 610] | ″+++″ (≧50% = +++)
123 (NLWDLTDASVV; listed as Homo sapiens) [compound 123] | ″+++″ (≧50% = +++)
102 (YLFESEGLVL; listed as Homo sapiens) [compound 102] | ″+++″ (≧50% = +++)
498 (KLWTGGLDNTV; listed as Homo sapiens) [compound 498] | ″+++″ (≧50% = +++)
64 (YAAPGGLIGV; listed as Homo sapiens) [compound 64] | ″++″ (≧20% = ++)
563 (WLLPYNGVTV; listed as Homo sapiens) [compound 563] | ″+++″ (≧50% = +++)
182 (MLLEAPGIFL; listed as Homo sapiens) [compound 182] | ″+++″ (≧50% = +++)
573 (ILVANAIVGV; listed as Homo sapiens) [compound 573] | ″+++″ (≧50% = +++)
310 (FLVDTPLARA; listed as Homo sapiens) [compound 310] | ″++++″ (≧75% = ++++)
229 (RLPGPLGTV; listed as Homo sapiens) [compound 229] | ″++″ (≧20% = ++)
253 (GLDAATATV; listed as Homo sapiens) [compound 253] | ″++″ (≧20% = ++)
353 (YLFEMDSSL; listed as Homo sapiens) [compound 353] | ″++″ (≧20% = ++)
73 (NIFDLQIYV; listed as Homo sapiens) [compound 73] | ″+++″ (≧50% = +++)
72 (SLLELDGINL; listed as Homo sapiens) [compound 72] | ″+++″ (≧50% = +++)
